Among the data in publication PMC3398911 are XPLN-catalysed mant-nucleotide exchange in vitro, fold stimulation values, retold here.

Experiment [1] has as its target GST-RhoC (wild type) (human) (UniProt P08134).
The next experiment deals with GST-RhoC-43T (human) (UniProt P08134).

B1: GST-XPLN (full length) (enzyme)
chain: MVAKDYPFYLTVKRANCSLELPPASGPAKDAEEPSNKRVKPLSRVTSLANLIPPVKATPLKRFSQTLQRSISFRSESRPDILAPRPWSRNAAPSSTKRRDSKLWSETFDVCVNQMLTSKEIKRQEAIFELSQGEEDLIEDLKLAKKAYHDPMLKLSIMTEQELNQIFGTLDSLIPLHEELLSQLRDVRKPDGSTEHVGPILVGWLPCLSSYDSYCSNQVAAKALLDHKKQDHRVQDFLQRCLESPFSRKLDLWNFLDIPRSRLVKYPLLLREILRHTPNDNPDQQHLEEAINIIQGIVAEINTKTGESECRYYKERLLYLEEGQKDSLIDSSRVLCCHGELKNNRGVKLHVFLFQEVLVITRAVTHNEQLCYQLYRQPIPVKDLLLEDLQDGEVRLGGSLRGAFSNNERIKNFFRVSFKNGSQSQTHSLQANDTFNKQQWLNCIRQAKETVLCAAGQAGVLDSEGSFLNPTTGSRELQGETKLEQMDQSDSESDCSMDTSEVSLDCERMEQTDSSCGNSRHGESNV
As to B1, the XPLN-catalysed mant-nucleotide exchange in vitro, fold stimulation in experiment [1] was 1.1 fold; in the experiment with GST-RhoC-43T (human), 1.4 fold.
